In EP2674440A2:

Columns and labels:
CEA = CEA (UniProt P06731); experiment: SE-HPLC of 125I-TF2 mixed with a 20-fold molar excess of CEA
[1] = biological target: fusion protein containing the A3B3 domain of CEA (UniProt P06731); experiment: competitive ELISA against HRP-conjugated hMN-14 IgG (1 nM)

- % of labeled TF2 shifted to a high molecular weight species (CEA): 95%
- fold avidity relative to TF1 [1]: 2 fold
Substance: TF2 (bispecific antibody)
